In this experiment the target is SBP-tagged EF2 purified from WDR85 deficient (WDR85GT) cells (human, UniProt P13639 1-858). In words: co-purification with SBP-tagged EF2 on streptavidin sepharose from WDR85GT cells; silver stain, mass spectrometry, immunoblot. (In western blotting, separated proteins are transferred to a membrane and probed.)

Description: Proteins were separated using SDS-PAGE gel electrophoreses and visualized using silverstaining. For mass spectrometry, the EF2 band was purified from gel and digested using trypsin.

B1: DPH5 (enzyme)
chain: MLYLIGLGLGDAKDITVKGLEVVRRCSRVYLEAYTSVLTVGKEALEEFYGRKLVVADREEVEQEADNILKDADISDVAFLVVGDPFGATTHSDLVLRATKLGIPYRVIHNASIMNAVGCCGLQLYKFGETVSIVFWTDTWRPESFFDKVKKNRQNGMHTLCLLDIKVKEQSLENLIKGRKIYEPPRYMSVNQAAQQLLEIVQNQRIRGEEPAVTEETLCVGLARVGADDQKIAAGTLRQMCTVDLGEPLHSLIITGGSIHPMEMEMLSLFSIPENSSESQSINGL
notes: also called methyltransferase DPH5
In the case of B1, the binding result is on record as “binds”.

Source of the values: US20190376079A1 (WHITEHEAD INSTITUTE FOR BIOMEDICAL RESEARCH, published 2019).
